Experimental data: patent publication US20240109974A1 (SHANDONG SIMCERE BIOPHARMACEUTICAL, published 2024)

T1: human TNFR2 (Novoprotein, Cat #C830) (human, UniProt P20333 23-257, limits assumed)
T1 construct: construct not described; also called human TNFR2 protein
T1 sequence (looked up): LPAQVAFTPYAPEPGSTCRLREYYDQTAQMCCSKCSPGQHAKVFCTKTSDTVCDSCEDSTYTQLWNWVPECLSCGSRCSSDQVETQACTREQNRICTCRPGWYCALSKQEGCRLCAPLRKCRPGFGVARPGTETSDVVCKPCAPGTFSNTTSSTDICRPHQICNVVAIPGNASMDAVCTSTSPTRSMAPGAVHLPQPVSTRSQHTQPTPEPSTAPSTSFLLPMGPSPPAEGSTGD

T2: human TNFR2 on the surface of CHO-TNFR2 cells (human, UniProt P20333 23-461)
T2 construct: whole, on cells
T2 sequence (looked up): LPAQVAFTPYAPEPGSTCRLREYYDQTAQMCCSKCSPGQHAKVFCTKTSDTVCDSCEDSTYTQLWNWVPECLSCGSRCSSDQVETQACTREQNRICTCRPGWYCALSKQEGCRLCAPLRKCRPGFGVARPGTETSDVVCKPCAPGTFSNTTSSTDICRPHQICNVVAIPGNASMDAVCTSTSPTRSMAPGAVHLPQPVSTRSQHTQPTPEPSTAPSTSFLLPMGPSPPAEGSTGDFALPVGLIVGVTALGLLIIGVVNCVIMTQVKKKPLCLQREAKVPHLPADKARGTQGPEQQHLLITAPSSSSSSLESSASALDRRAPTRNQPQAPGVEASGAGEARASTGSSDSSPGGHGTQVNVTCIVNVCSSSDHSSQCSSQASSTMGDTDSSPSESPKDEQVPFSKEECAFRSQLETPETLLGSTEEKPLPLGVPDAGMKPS


Tests used:
[1] = molecular target: T1, human TNFR2 (Novoprotein, Cat #C830); assay: competition ELISA, competitor human TNFα-Biotin; AUC against 001-WT
Procedure: (§1) 1 μg/ml human TNFR2 (Novoprotein, Cat #C830) was pre-coated with 100 μl/well […] in an ELISA plate. All the test TNFR2 antibodies were subjected to 2.5-fold gradient dilution from the highest concentration of 30 μg/ml; the diluted antibodies were mixed with 15 ng/ml human TNFα-Biotin (Acro Biosystem, Cat #TNA-H82E3) in equal volume, respectively; the resulting mixture was added to the ELISA plate at 100 μl/well, and incubated with shaking at room temperature for 2.0 hours. The plate was washed, and then a Streptavidin-HRP working solution (diluted at 1:10000) was added at 100 μl/well, and the mixture was incubated with shaking at room temperature for 40 minutes. The plate was washed again, and then the substrate TMB of HRP was added to develop colour. A stop solution was added to stop the reaction, and then a microplate reader (MD 13) was used to read the absorbance value. The inhibitory curve of an antibody was drawn with antibody concentration as the abscissa and corresponding OD value as the ordinate, and fitted with four parameters (GraphPad Prism9) to calculate the IC50 value. The smaller the IC50 value, the stronger the ability of an antibody to inhibit the binding of human TNFα to human TNFR2. The blocking effect of a humanized antibody was normalized to its corresponding human-murine chimeric antibody WT. The higher the percentage value, the better the inhibitory effect of the humanized antibody.

[2] = molecular target: T1, human TNFR2 (Novoprotein, Cat #C830); assay: competition ELISA, competitor human TNFα-Biotin; IC50 against 219-WT
Procedure: as §1

[3] = molecular target: T2, human TNFR2 on the surface of CHO-TNFR2 …; assay: competition flow cytometry on CHO-TNFR2 cells, competitor TNFα-biotin; AUC against 224-WT
Procedure: CHO stable cells highly expressing human TNFR2 were used for the experiment (the same as CHO-TNFR2 in Example 4). The CHO-TNFR2 cells were digested, washed twice with DPBS, then stained with Live/Dead (L/D) (20 minutes at room temperature), and plated at a density of 1×10⁵ cells/50 μl/well. A test anti-TNFR2 antibody was diluted to 6 μg/ml with a staining buffer as the starting concentration: the antibody was subjected to 3.33-fold gradient dilution, with a total of 7 concentration points. The diluted antibody was added to the plated cells at 50 μl/well, and the mixture was mixed well by gentle pipetting, and incubated at 4° C. for 30 minutes. Then the diluted 100 ng/ml of human TNFα-biotin was added at 100 μl/well, and the mixture was mixed well by gentle pipetting, and then incubated at 4° C. for 30 minutes. The mixture was washed twice with a staining buffer, and then 0.12 μg/ml PE-streptavidin (BioLegend, Cat #405204) was added at 100 μl/well; the resulting mixture was incubated at 4° C. for 30 minutes. The mixture was washed twice with a staining buffer, and then 150 μl of staining buffer was added to resuspend the cells; signals were detected by a flow cytometer (Thermo Attune NxT). The inhibitory curve of an antibody was drawn with antibody concentration as the abscissa and corresponding MFI value as the ordinate, and fitted with four parameters (GraphPad Prism9) to calculate the IC50 value. The smaller the IC50 value, the stronger the ability of an antibody to inhibit the binding of human TNFα to human TNFR2. The blocking effect of a humanized antibody was normalized to its corresponding human-murine chimeric WT antibody. The higher the percentage value, the better the inhibitory effect of the humanized antibody.

% Relative activity (WT antibody/test antibody) [1] | % Relative activity (WT antibody/test antibody) [3] | Binder | also measured
98% | – | 001-Hu5 (antibody, V domains shown, Humanized form of #001; also called VH1 + VL4) VH: EVQLVESGGGLVQPGGSLRLSCAASGFAFSTYDLSWVRQAPGKGLEWVAYINNGGISTYYSDTVKGRFTISRDNAKNTLYLQMNSLRAEDTAVYYCVRGPFYGSANYFDYWGQGTLVTVSS VL: DIQMTQSPSSLSASVGDRVTITCRTSESIYSNLPWYQQKPGKSPKLLVYDATKLAEGVPSRFSGSGSGTDYTLTISSLQPEDFATYYCQHFWVTPWTFGQGTKVEIK | –
99.4% | – | 001-Hu3 (antibody, V domains shown, Humanized form of #001; also called VH1 + VL3) VH: EVQLVESGGGLVQPGGSLRLSCAASGFAFSTYDLSWVRQAPGKGLEWVAYINNGGISTYYSDTVKGRFTISRDNAKNTLYLQMNSLRAEDTAVYYCVRGPFYGSANYFDYWGQGTLVTVSS VL: DIQMTQSPSSLSASVGDRVTITCRTSESIYSNLPWYQQKPGKAPKLLIYDATKLAEGVPSRFSGSGSGTDYTLTISSLQPEDFATYYCQHFWVTPWTFGQGTKVEIK | –
98% | – | 001-Hu1 (antibody, V domains shown, Humanized form of #001; also called VH1 + VL1) VH: EVQLVESGGGLVQPGGSLRLSCAASGFAFSTYDLSWVRQAPGKGLEWVAYINNGGISTYYSDTVKGRFTISRDNAKNTLYLQMNSLRAEDTAVYYCVRGPFYGSANYFDYWGQGTLVTVSS VL: DIQMTQSPSSLSASVGDRVTITCRTSESIYSNLPWYQQKPGKAPKLLLYDATKLAEGVPSRFSGSGSGTDYTLTISSLQPEDFATYYCQHFWVTPWTFGQGTKVEIK | –
101% | – | 001-Hu4 (antibody, V domains shown, Humanized form of #001; also called VH2 + VL4) VH: EVQLVESGGGLVQPGGSLRLSCAASGFAFSTYDLSWVRQAPGKGLEWVAYINNGGISTYYSDTVKGRFTISRDNAKNSLYLQMNSLRAEDTAVYYCVRGPFYGSANYFDYWGQGTLVTVSS VL: DIQMTQSPSSLSASVGDRVTITCRTSESIYSNLPWYQQKPGKSPKLLVYDATKLAEGVPSRFSGSGSGTDYTLTISSLQPEDFATYYCQHFWVTPWTFGQGTKVEIK | –
97.1% | – | 001-Hu2 (antibody, V domains shown, Humanized form of #001; also called VH2 + VL2) VH: EVQLVESGGGLVQPGGSLRLSCAASGFAFSTYDLSWVRQAPGKGLEWVAYINNGGISTYYSDTVKGRFTISRDNAKNSLYLQMNSLRAEDTAVYYCVRGPFYGSANYFDYWGQGTLVTVSS VL: DIQMTQSPSSLSASVGDRVTITCRTSESIYSNLPWYQQKPGKSPKLLIYDATKLAEGVPSRFSGSGSGTDFTLTISSLQPEDFATYYCQHFWVTPWTFGQGTKVEIK | –
– | – | 219-Hu3 (antibody, V domains shown, also called VH5 + VL5) VH: QVQLVQSGAEVKKPGSSVKVSCKASGYSFTNYWMNWVRQAPGQGLEWMGMIHPSDTETRLNQNFKDRVTITADKSTSTAYMELSSLRSEDTAVYYCARGEGLGAARSVSMDYWGQGTLVTVSS VL: DIQMTQSPSSLSASVGDRVTITCRASQDISNYLNWYQQKPDGTVKLLIYYTAILHSGVPSRFSGSGSGTDYSLTISSLQPEDFATYFCQQGNTLPWTFGQGTKVEIK | % Relative activity (WT antibody/test antibody) [2]: 111%
– | – | 219-Hu1 (antibody, V domains shown, also called VH3 + VL5) VH: QVQLVQSGAEVKKPGASVKVSCKASGYSFTNYWMNWVRQAPGQRLEWMGMIHPSDTETRLNQNFKDRVTITRDTSASTAYMELSSLRSEDTAVYYCARGEGLGAARSVSMDYWGQGTLVTVSS VL: DIQMTQSPSSLSASVGDRVTITCRASQDISNYLNWYQQKPDGTVKLLIYYTAILHSGVPSRFSGSGSGTDYSLTISSLQPEDFATYFCQQGNTLPWTFGQGTKVEIK | % Relative activity (WT antibody/test antibody) [2]: 128%
– | 99.2% | 224-Hu1 (antibody, V domains shown, Humanized form of #224; also called VH8 + VL6) VH: QVQLVQSGAEVKKPGASVKVSCKASGFNNKDIYMHWVRQAPGQGLEWIGRIDPATGNTKHDPKFQDRVTMTSDTSTNTVYMELSSLRSEDTAVYYCARSPYGDFGAMDYWGQGTLVTVSS VL: DIQMTQSPSSLSASVGDRVTITCTASSSVSSNYLHWYQQKPGKAPKLWIYSTSNLPSGVPSRFSGSGSGTDFTLTISSLQPEDFATYYCHQYHRSPWTFGQGTKVEIK | –
– | 91.1% | 224-Hu7 (antibody, V domains shown, Humanized form of #224; also called VH9 + VL10) VH: QVQLVQSGSELKKPGASVKVSCKASGFNNKDIYMHWVRQAPGQGLEWMGRIDPATGNTKHDPKFQDKAVLSSDTSVSTAYLQISSLKAEDTAVYYCARSPYGDFGAMDYWGQGTLVTVSS VL: DIQMTQSPSSLSASVGDRVTITCTASSSVSSNYLHWYQQKPGKAPKLLIYSTSNLPSGVPSRFSGSGSGTDFTLTISSLQPEDFATYYCHQYHRSPWTFGQGTKVEIK | –
– | 105% | 224-Hu2 (antibody, V domains shown, Humanized form of #224; also called VH9 + VL7) VH: QVQLVQSGSELKKPGASVKVSCKASGFNNKDIYMHWVRQAPGQGLEWMGRIDPATGNTKHDPKFQDKAVLSSDTSVSTAYLQISSLKAEDTAVYYCARSPYGDFGAMDYWGQGTLVTVSS VL: DIQMTQSPSSLSASVGDRVTITCTASSSVSSNYLHWYQQKPGSSPKLWIYSTSNLPSGVPSRFSGSGSGTDFTLTISSLQPEDFATYYCHQYHRSPWTFGQGTKVEIK | –
– | 95.6% | 224-Hu3 (antibody, V domains shown, Humanized form of #224; also called VH9 + VL8) VH: QVQLVQSGSELKKPGASVKVSCKASGFNNKDIYMHWVRQAPGQGLEWMGRIDPATGNTKHDPKFQDKAVLSSDTSVSTAYLQISSLKAEDTAVYYCARSPYGDFGAMDYWGQGTLVTVSS VL: DIQMTQSPSSLSASVGDRVTITCTASSSVSSNYLHWYQQKPGKAPKLLIYSTSNLPSGVPSRFSGSGSGTDFTLTISSLQAEDAATYYCHQYHRSPWTFGQGTKVEIK | –
– | 99.4% | 224-Hu6 (antibody, V domains shown, Humanized form of #224; also called VH8 + VL7) VH: QVQLVQSGAEVKKPGASVKVSCKASGFNNKDIYMHWVRQAPGQGLEWIGRIDPATGNTKHDPKFQDRVTMTSDTSTNTVYMELSSLRSEDTAVYYCARSPYGDFGAMDYWGQGTLVTVSS VL: DIQMTQSPSSLSASVGDRVTITCTASSSVSSNYLHWYQQKPGSSPKLWIYSTSNLPSGVPSRFSGSGSGTDFTLTISSLQPEDFATYYCHQYHRSPWTFGQGTKVEIK | –
– | 94.4% | 224-Hu5 (antibody, V domains shown, Humanized form of #224; also called VH9 + VL9) VH: QVQLVQSGSELKKPGASVKVSCKASGFNNKDIYMHWVRQAPGQGLEWMGRIDPATGNTKHDPKFQDKAVLSSDTSVSTAYLQISSLKAEDTAVYYCARSPYGDFGAMDYWGQGTLVTVSS VL: DIQMTQSPSSLSASVGDRVTITCTASSSVSSNYLHWYQQKPGKAPKLLIYSTSNLPSGVPSRFSGSGSGTDYSLTISSLQPEDFATYYCHQYHRSPWTFGQGTKVEIK | –
– | 97.3% | 224-Hu4 (antibody, V domains shown, Humanized form of #224; also called VH9 + VL6) VH: QVQLVQSGSELKKPGASVKVSCKASGFNNKDIYMHWVRQAPGQGLEWMGRIDPATGNTKHDPKFQDKAVLSSDTSVSTAYLQISSLKAEDTAVYYCARSPYGDFGAMDYWGQGTLVTVSS VL: DIQMTQSPSSLSASVGDRVTITCTASSSVSSNYLHWYQQKPGKAPKLWIYSTSNLPSGVPSRFSGSGSGTDFTLTISSLQPEDFATYYCHQYHRSPWTFGQGTKVEIK | –
